Test results from paper PMC5454376 (Nature Communications, 2017).
Where no end group is shown, it is not given here.

Columns and labels:
Details in all cases: both partners purified
[1] = target: T1, Full-length human Gαi3, untagged (NMR sample) (human, UniProt P08754 1-354); test: NMR titration; 1H–15N TROSY and HNCO of 32 μM 2H,13C,15N-Gαi3 titrated with GIV peptide 1,671–1,696 (molar ratios 1:0 to 1:5); 30 °C; 10 mM HEPES pH 7.0, 10 mM MgCl2, 5 mM DTT, GDP; up to 3% DMSO
T1 construct: Uniformly 2H,13C,15N labelled for NMR; also called Gαi3-GDP; 2H,13C,15N-Gαi3; source: E. coli BL21 Rosetta, pET24d(+), purified (His-Trap, tag cleavage, GST-Trap, Superdex 200); not shown: His tag, N-terminal, cleaved

[2] = target: T2, Human His-Gαi3 N256A (human, UniProt P08754 1-354, N256 mutated to A); test: fluorescence polarisation; fluorescein-labelled peptide 0.025 μM, G protein 0–8 μM; room temperature; 50 mM Tris-HCl pH 7.4, 100 mM NaCl, 0.4% NP-40, 10 mM MgCl2, 5 mM EDTA, 2 mM DTT, 30 μM GDP; one site binding hyperbola
T2 construct: Gαi3, human, UniProt P08754, full length; also called N256 mutated to A; source: E. coli, pET24d(+), purified as uncleaved His-tagged protein (HisPur Cobalt Resin); not shown: His tag, N-terminal, kept

[3] = target: T3, Human His-Gαi3 ΔC9 (lacking the last nine residues) (human, UniProt P08754 1-345); test: as above
T3 construct: Gαi3, human, UniProt P08754, lacking the last nine residues; source: E. coli, pET24d(+), purified as uncleaved His-tagged protein (HisPur Cobalt Resin); not shown: His tag, N-terminal, kept

[4] = target: T4, Human His-Gαi3 WT (human, UniProt P08754 1-354); test: as above
T4 construct: Gαi3, human, UniProt P08754, full length; same plasmid as for the NMR studies; also called His-tagged Gαi3; tagged protein; source: E. coli, pET24d(+), purified as uncleaved His-tagged protein (HisPur Cobalt Resin); not shown: His tag, N-terminal, kept

[5] = target: T1, Full-length human Gαi3, untagged (NMR …); test: as above
[6] = target: T5, Human His-Gαi3 S252A (human, UniProt P08754 1-354, S252 mutated to A); test: as above
T5 construct: Gαi3, human, UniProt P08754, full length; also called S252 mutated to A; source: E. coli, pET24d(+), purified as uncleaved His-tagged protein (HisPur Cobalt Resin); not shown: His tag, N-terminal, kept

[7] = target: T2, Human His-Gαi3 N256A; test: pull-down; 10 μg GST-GIV or GST-DAPLE on glutathione agarose beads (~1.25 μM); His-Gαi3 WT or mutants ~1 μM in solution; 4 h, 4 °C; 50 mM Tris-HCl pH 7.4, 100 mM NaCl, 0.4% NP-40, 10 mM MgCl2, 5 mM EDTA, 2 mM DTT, 30 μM GDP; Coomassie blue
[8] = target: T3, Human His-Gαi3 ΔC9 (lacking the last …); test: as above
[9] = target: T4, Human His-Gαi3 WT; test: as above
[10] = target: T5, Human His-Gαi3 S252A; test: as above
[11] = target: T6, Human His-Gαi3 W211A (human, UniProt P08754 1-354, W211A); test: fluorescence polarisation; fluorescein-labelled peptide 0.025 μM, G protein 0–8 μM; room temperature; 50 mM Tris-HCl pH 7.4, 100 mM NaCl, 0.4% NP-40, 10 mM MgCl2, 5 mM EDTA, 2 mM DTT, 30 μM GDP; one site binding hyperbola
T6 construct: Gαi3, human, UniProt P08754, full length; source: E. coli, pET24d(+), purified as uncleaved His-tagged protein (HisPur Cobalt Resin); not shown: His tag, N-terminal, kept

[12] = target: T7, His-tagged rat Gαi3 (rat, UniProt P08753 1-354); test: pull-down; as a1 but His-Gαi3 reloaded with GDP (Gαi3-[GDP]) and buffer supplemented with 100 μM GDP
T7 construct: Same protein in three nucleotide states (nucleotide-free, GDP, GDP/AlF4−); the states are told apart by the assays a1-a3; also called His-Gαi3; Gαi3-[GDP]; source: E. coli BL21(DE3), pET28b, purified (Superdex S75); nucleotide-depleted and reloaded or not with GDP or GDP/AlF4−

[13] = target: T1, Full-length human Gαi3, untagged (NMR …); test: NMR titration; 1H–15N TROSY and HNCO of 100 μM 2H,13C,15N-Gαi3 free and with a twofold molar excess of His-GIV-CT; 30 °C; 10 mM HEPES pH 7.0, 10 mM MgCl2, 5 mM DTT, threefold molar excess of GDP

Measured: binding result

T1 sequence (P08754 whole entry): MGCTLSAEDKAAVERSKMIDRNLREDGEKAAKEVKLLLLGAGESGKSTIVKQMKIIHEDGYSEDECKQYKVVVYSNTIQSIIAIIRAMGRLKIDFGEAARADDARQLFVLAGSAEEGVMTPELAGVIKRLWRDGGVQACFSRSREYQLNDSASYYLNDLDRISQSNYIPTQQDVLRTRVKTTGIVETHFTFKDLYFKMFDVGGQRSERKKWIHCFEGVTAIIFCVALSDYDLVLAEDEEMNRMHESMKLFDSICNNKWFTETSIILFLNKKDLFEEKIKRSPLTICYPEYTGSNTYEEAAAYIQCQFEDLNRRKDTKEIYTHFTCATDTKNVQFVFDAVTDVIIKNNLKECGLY
T4 sequence (P08754 whole entry): as above
T3 sequence (P08754 1-345, stated change not applied): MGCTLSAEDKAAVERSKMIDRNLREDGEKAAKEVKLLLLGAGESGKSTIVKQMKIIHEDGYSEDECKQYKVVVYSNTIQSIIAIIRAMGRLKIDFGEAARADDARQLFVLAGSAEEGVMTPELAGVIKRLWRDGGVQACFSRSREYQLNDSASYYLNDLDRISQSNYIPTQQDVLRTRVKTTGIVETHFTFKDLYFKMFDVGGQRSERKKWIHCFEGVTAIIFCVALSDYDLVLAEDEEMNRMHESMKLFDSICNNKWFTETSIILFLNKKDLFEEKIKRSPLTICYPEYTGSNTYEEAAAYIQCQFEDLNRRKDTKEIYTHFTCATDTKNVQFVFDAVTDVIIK
T5 sequence (P08754 whole entry S252A): as the sequence (P08754 whole entry) above, with S252A counted along it
T2 sequence (P08754 whole entry N256A): as the sequence (P08754 whole entry) above, with N256A counted along it
T6 sequence (P08754 whole entry W211A): as the sequence (P08754 whole entry) above, with W211A counted along it
T7 sequence (P08753 whole entry): as the sequence (P08754 whole entry) above, with P121S, S165T, D193E, E261D, I319V counted along it

B1: GIV peptide, amino acids 1,671–1,696 (GIVpept) (peptide)
peptide: KTGSPGSEVVTLQQFLEESNKLTSVQ
notes: GIV (Girdin), human, residues 1,671–1,696; numbers on UniProt Q3V6T2-3; Made on p-methylbenzhydrylamine resin; also called GIV fragment 1,671–1,696; source: synthetic peptide
binds: [1]

B2: Fluorescein-labelled GIV peptide (residues 1,671–1,701) (peptide)
peptide: {5,6‑carboxyfluorescein}-KTGSPGSEVVTLQQFLEESNKLTSVQIKSSS
notes: numbers on UniProt Q3V6T2-3; also called GBA motif of GIV; GEF motif of GIV; source: synthetic peptide
binds: [2] | [3] | [4] | [5] | [6]

B3: GST-DAPLE (1,650–1,745) (domain or fragment, human, UniProt Q9P219 1650-1745, looked up)
chain: GTAPPYVGVRPCSASPSSEMVTLEEFLEESNRSSPTHDTPSCRDDLLSDYFRKASDPPAIGGQPGPPAKKEGAKMPTNFVAPTVKMAAPTSEGRPL
notes: DAPLE (dishevelled-associating protein with high frequency of leucines), human, residues 1,650–1,745, cloned from Kazusa's clone fh14721 (KIAA1509)
binds: [7] | [8] | [9] | [10]

B4: Fluorescein-labelled RGS12 GoLoco peptide (residues 1,185–1,221) (peptide)
peptide: {5,6‑carboxyfluorescein}-DEAEEFFELISKAQSNRADDQRGLLRKEDLVLPEFLR
notes: RGS12, GoLoco motif, residues 1,185–1,221; 'human' stands at the head of the list 'human GIV ..., DAPLE ... or RGS12'; read as applying to all three; also called GoLoco motif of RGS12; RGS12 GoLoco motif; source: synthetic peptide
binds: [4] | [11]

B5: GST-GIV (residues 1,671–1,755, containing its GBA motif) (domain or fragment, human, UniProt Q3V6T2-3 1671-1755, looked up)
chain: KTGSPGSEVVTLQQFLEESNKLTSVQIKSSSQENLLDEVMKSLSVSSDFLGKDKPVSCGLARSVSGKTPGDFYDRRTTKPEFLRP
notes: Girdin), human, residues 1,671–1,755
binds: [7] | [8] | [9] | [10] | [12]

B6: His-tagged human GIV residues 1,660–1,870 (GIV-CT) (domain or fragment, UniProt Q3V6T2-3 1660-1870, looked up)
chain: SETLESRHHKIKTGSPGSEVVTLQQFLEESNKLTSVQIKSSSQENLLDEVMKSLSVSSDFLGKDKPVSCGLARSVSGKTPGDFYDRRTTKPEFLRPGPRKTEDTYFISSAGKPTPGTQGKIKLVKESSLSRQSKDSNPYATLPRASSVISTAEGTTRRTSIHDFLTKDSRLPISVDSPPAAADSNTTAASNVDKVQESRNSKSRSREQQSS
notes: MALDI mass consistent with the tagged fragment lacking the initial methionine; source: E. coli BL21(DE3), pET28b, purified (Co2+ and Ni2+ columns, Superdex 200); not shown: His tag, N-terminal, kept
binds: [13]
